Consider 14 molecules from patent US9580464B2, “Anti-inflammatory proteins and peptides and methods of preparation and use thereof” (ManukaMed Limited, priority 2012, dated 2017).

Experiment [1] in a line: Anti-inflammatory activity of MGO-modified proteins (results not shown). The source says:
As used herein, “anti-inflammatory capacity” is defined as the capacity to clinically reduce inflammation or the symptoms of inflammation in cellular tissue. Anti-inflammatory capacity may be determined using the phagocytosis inhibition assay (PIA) described in PCT/NZ PCT/NZ/2011/000271 or the DCFDA assay also described in PCT/NZ/2011/000271 or the anti-inflammatory capacity may also be determined by the inhibition of Cathepsin B as described in detail below.

Experiment [2] addresses Cathepsin B from bovine spleen (Bos taurus, UniProt P07688). Briefly: Assay for Cathepsin B activity / inhibition (Z-Lys-pNP substrate, absorbance 330 nm). It counts as biochemical.
Another experiment deals with Cathepsin B (Bos taurus, UniProt P07688). Briefly: Cathepsin B digestion of MGO-modified MRJP, native PAGE. It counts as biochemical. Conditions: 37° C. The procedure: Cathepsin B working reagent solution was prepared (1:50) from Cathepsin B stock solution in the buffer system containing 100 mM sodium acetate, 2 mM EDTA and 2.5 mM 2-mercaptoethanol, pH 5.0.
Cathepsin digestion was performed on selected samples of SEC fractions. Typically, 10 μl of Cathepsin B working solution was mixed with 20 μl of protein sample and digested at 37° C. for overnight. After hydrolysis, the digests were prepared for native PAGE analysis.
Samples used in the Cathepsin B digestion were: 1) Crude MRJP protein; 2) Desalted fraction (first big peak) of MGO-modified MRJP at pH 4.0 for 9 days sample; 3) Desalted fraction (first big peak) of MGO-modified MRJP in PBS (pH 7.5) for 9 days sample; 4) SEC fractions of pH 5.0 fractions; 5) SEC fractions of reaction 221.
For hydrolysis, 10 μL of a 1 mg/mL solution (10 μg) of Cathepsin B was used. Thus, a very high level of enzyme activity was employed for these experiments. Moreover, the reaction was performed over two days at 37° C. Under these conditions, we expected to see complete or near complete hydrolysis of the MRJP proteins.

Where [3] appears, read: Table 9, additional synthetic peptides, MGO-modified.
Setting [4] is: Table 9, additional synthetic peptides, unmodified.
Setting [5] is: Table 8, MRJP5 derived synthetic peptides, MGO-modified.
The mark [6] stands for this setting: Table 8, MRJP5 derived synthetic peptides, unmodified.
The mark [7] stands for this setting: Table 6, MRJP1 derived synthetic peptides, MGO-modified.
The mark [8] stands for this setting: Table 6, MRJP1 derived synthetic peptides, unmodified.

As for “MGO-modified bovine serine albumin: bovine serum albumin reacted with methylglyoxal, comparison protein [reference compound]”, the “Anti-inflammatory activity” value in experiment [1] is “no anti-inflammatory activity”. For “Ac-LLK-NH2 (Ac-Leu-Leu-Lys-NH2) [synthetic peptide derived from MRJP1, 2, 4, amidated C-terminus]”, the “Cathepsin B remaining activity (% of control)” value was 136.90 in experiment [2] (setting [3]) and 159.34 ± 2.34 in experiment [2] (setting [4]). “H-LQK-OH (H-Leu-Gln-Lys-OH) [MRJP5 derived synthetic peptide]”: the “Cathepsin B remaining activity (% of control)” value in experiment [2] (setting [5]) was determined as 95.26 ± 5.54; in experiment [2] (setting [6]) it was 102.47 ± 4.27.

“H-VNR-OH (H-Val-Asn-Arg-OH) [MRJP5 derived synthetic peptide]”: the “Cathepsin B remaining activity (% of control)” value in experiment [2] (setting [5]) was found to be 82.63 ± 7.88; in experiment [2] (setting [6]), 97.75 ± 10.62. With “Ac-CDR-OH (Ac-Cys-Asp-Arg-OH) [MRJP1 derived synthetic peptide]”, the “Cathepsin B remaining activity (% of control)” value in experiment [2] (setting [7]) is 78.51 ± 2.51; in experiment [2] (setting [8]) it was 120.52 ± 8.17. For “Ac-FDR-OH (Ac-Phe-Asp-Arg-OH) [MRJP1 derived synthetic peptide]”, in that order: 44.78 ± 1.54 and 85.57 ± 3.51. In the case of “Ac-LVK-NH2 (Ac-Leu-Val-Lys-NH2) [synthetic peptide derived from MRJP3 (see Leu170), amidated C-terminus]”, the “Cathepsin B remaining activity (% of control)” value in experiment [2] (setting [3]) was 80.03; in experiment [2] (setting [4]), 92.71 ± 7.78. Consider “Ac-IDR-OH (Ac-Ile-Asp-Arg-OH) [MRJP5 derived synthetic peptide]”, for which the “Cathepsin B remaining activity (% of control)” value in experiment [2] (setting [5]) is 81.75 ± 3.26; in experiment [2] (setting [6]), 93.46 ± 12.24.

Turning to “H-YINR-OH [MRJP1 derived synthetic peptide]”, the “Cathepsin B remaining activity (% of control)” value in experiment [2] (setting [7]) is reported as 79.21 ± 2.12; in experiment [2] (setting [8]) it was 142.33 ± 3.64.

Consider “Ac-SKLH-OH [synthetic peptide derived from the C-terminus of MRJP3]”, for which the “Cathepsin B remaining activity (% of control)” value in experiment [2] (Table 3, peptides from C-terminus of MRJP3, 2 mM MGO-modified peptide) came out at 67.57 ± 1.73; in experiment [2] (Table 3, peptides from C-terminus of MRJP3, 2 mM unmodified peptide), 146.35 ± 2.91.

B1: monomeric form of royalactin: unmodified monomeric MRJP1 (royalactin) (protein)
chain: NILRGESLNKSLPILHEWKFFDYDFGSDERRQDAILSGEYDYKNNYPSDIDQWHDKIFVTMLRYNGVPSSLNVISKKVGDGGPLLQPYPDWSFAKYDDCSGIVSASKLAIDKCDRLWVLDSGLVNNTQPMCSPKLLTFDLTTSQLLKQVEIPHDVAVNATTGKGRLSSLAVQSLDCNTNSDTMVYIADEKGEGLIVYHNSDDSFHRLTSNTFDYDPKFTKMTIDGESYTAQDGISGMALSPMTNNLYYSPVASTSLYYVNTEQFRTSDYQQNDIHYEGVQNILDTQSSAKVVSKSGVLFFGLVGDSALGCWNEHRTLERHNIRTVAQSDETLQMIASMKIKEALPHVPIFDRYINREYILVLSNKMQKMVNNDFNFDDVNFRIMNANVNELILNTRCENPDNDRTPFKISIHL
As for B1, the “Hydrolysis by Cathepsin B” value with Cathepsin B is recorded as “readily degraded”.

B2: MGO-modified MRJP1: major royal jelly protein 1 (apalbumin 1) chemically modified by methylglyoxal (protein, UniProt O18330 20-432, looked up)
Major royal jelly protein 1: NILRGESLNKSLPILHEWKFFDYDFGSDERRQDAILSGEYDYKNNYPSDIDQWHDKIFVTMLRYNGVPSSLNVISKKVGDGGPLLQPYPDWSFAKYDDCSGIVSASKLAIDKCDRLWVLDSGLVNNTQPMCSPKLLTFDLTTSQLLKQVEIPHDVAVNATTGKGRLSSLAVQSLDCNTNSDTMVYIADEKGEGLIVYHNSDDSFHRLTSNTFDYDPKFTKMTIDGESYTAQDGISGMALSPMTNNLYYSPVASTSLYYVNTEQFRTSDYQQNDIHYEGVQNILDTQSSAKVVSKSGVLFFGLVGDSALGCWNEHRTLERHNIRTVAQSDETLQMIASMKIKEALPHVPIFDRYINREYILVLSNKMQKMVNNDFNFDDVNFRIMNANVNELILNTRCENPDNDRTPFKISIHL
modifications: methylglyoxal-modified
notes: major royal jelly protein 1 (apalbumin 1) chemically modified by methylglyoxal
Take B2: the “Anti-inflammatory activity” value in experiment [1] is “enhanced anti-inflammatory properties”.

B3: MGO-modified MRJP3: major royal jelly protein 3 chemically modified by methylglyoxal (protein, UniProt Q17060 21-544, looked up)
Major royal jelly protein 3: AAVNHQRKSANNLAHSMKVIYEWKHIDFDFGSDERRDAAIKSGEFDHTKNYPFDVDRWRDKTFVTIERNNGVPSSLNVVTNKKGKGGPLLRPYPDWSFAKYEDCSGIVSAFKIAVDKFDRLWVLDSGLVNNNQPMCSPKLLTFDLKTSKLVKQVEIPHNIAVNATTGMGELVSLAVQAIDRTNTMVYIADEKGEGLIMYQNSDDSFHRLTSNTFDYDPRYTKLTVAGESFTVKNGIYGIALSPVTNNLYYSPLLSHGLYYVDTEQFSNPQYEENNVQYEGSQDILNTQSFGKVVSKNGVLFLGLVGNSGIACVNEHQVLQRESFDVVAQNEETLQMIVSMKIMENLPQSGRINDPEGNEYMLALSNRMQKIINNDFNFNDVNFRILGANVDDLMRNTRCGRYHNQNAGNQNADNQNADNQNANNQNADNQNANKQNGNRQNDNRQNDNKQNGNRQNDNKQNGNRQNDNKQNGNRQNGNKQNDNKQNGNRQNDNKRNGNRQNDNQNNQNDNNRNDNQVHHSSKLH
modifications: methylglyoxal-modified
notes: major royal jelly protein 3 chemically modified by methylglyoxal
In the case of B3, the “Anti-inflammatory activity” value in experiment [1] is on record as “enhanced anti-inflammatory properties”.

B4: native hexamer form of MRJP1: unmodified major royal jelly protein 1 (SEQ ID NO: 1), about 300 kDa hexamer (protein, listed as Apis mellifera)
chain: MTRLFMLVCLGIVCQGTTGNILRGESLNKSLPILHEWKFFDYDFGSDERRQDAILSGEYDYKNNYPSDIDQWHDKIFVTMLRYNGVPSSLNVISKKVGDGGPLLQPYPDWSFAKYDDCSGIVSASKLAIDKCDRLWVLDSGLVNNTQPMCSPKLLTFDLTTSQLLKQVEIPHDVAVNATTGKGRLSSLAVQSLDCNTNSDTMVYIADEKGEGLIVYHNSDDSFHRLTSNTFDYDPKFTKMTIDGESYTAQDGISGMALSPMTNNLYYSPVASTSLYYVNTEQFRTSDYQQNDIHYEGVQNILDTQSSAKVVSKSGVLFFGLVGDSALGCWNEHRTLERHNIRTVAQSDETLQMIASMKIKEALPHVPIFDRYINREYILVLSNKMQKMVNNDFNFDDVNFRIMNANVNELILNTRCENPDNDRTPFKISIHL
modifications: native hexamer
As to B4, the “Hydrolysis by Cathepsin B” value with Cathepsin B is “readily degraded”.
